This note sets out measurements from patent publication US20120076815A1.

The target in the experiment is recombinant TcPRACA proline racemase of Trypanosoma cruzi (subunit) (Trypanosoma cruzi) (UniProt Q4DA80). Description: cell-based or functional assay.

For “recombinant TcPRACA proline racemase of Trypanosoma cruzi (subunit) (from UniProt Q4DA80 30-423) (enzyme)”, the % racemization (fraction B1, start of the dimer peak) was 35.5%; the % racemization (fraction B2, dimer peak, about 80 kDa) is 62.9%; the % racemization (fraction B4, monomer peak, about 43 kDa) worked out at 0.7%; the % racemization (fraction B5, end of the monomer peak) turned out to be 0%.
